Reference: the supplement of paper PMC9112550, “Optimization of the antimicrobial peptide Bac7 by deep mutational scanning” (BMC Biology, 2022)

System: Escherichia coli TOP10
Assay: shrunken log2 fold change of peptide-encoding DNA abundance (4.5 h post-induction vs induction); higher = less antimicrobial activity (less host growth inhibition)
Conditions: time post-induction: 4.5 h; library: site-saturation at positions 5, 18, 19, 20
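Note: peptides expressed intracellularly from a pBAD plasmid library in pooled LB shake-flask culture, induced with 0.3% L-arabinose, DNA abundance read by NGS, three biological replicates, DESeq2 with apeglm shrinkage.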

RRIRPRPPRLPRPRPRPNWDPRP and RRIRNRPPRLPRPRPRPNSAPRP are within 0.2 log units of each other in “shrunken log2 fold change” value: 0.0377 for the first, 0.026 for the second.

First: RRIRFRPPRLPRPRPRPMRAPRP
Second: RRIRNRPPRLPRPRPRPNMIPRP
The “shrunken log2 fold change” value of the first is higher: 1.02 for the first, -0.697 for the second.

First: RRIRNRPPRLPRPRPRPHQLPRP
Second: RRIRPRPPRLPRPRPRPTDWPRP
The “shrunken log2 fold change” value of the first is lower: -0.0583 for the first, 0.257 for the second.

Compared with RRIRSRPPRLPRPRPRPRQWPRP, RRIRFRPPRLPRPRPRPVGFPRP is lower in “shrunken log2 fold change” value: 0.69 for the first, -0.0508 for the second.

RRIRCRPPRLPRPRPRPEAVPRP and RRIRDRPPRLPRPRPRPQSHPRP are within 0.2 log units of each other in “shrunken log2 fold change” value: 0.383 for the first, 0.236 for the second.

First: RRIRRRPPRLPRPRPRPPSHPRP
Second: RRIRPRPPRLPRPRPRPCVKPRP
The “shrunken log2 fold change” value of the first is higher: 0.586 for the first, -0.139 for the second.

Compared with RRIRKRPPRLPRPRPRPCPVPRP, RRIRERPPRLPRPRPRPAVFPRP is higher in “shrunken log2 fold change” value: -0.106 for the first, 0.154 for the second.

First: RRIRCRPPRLPRPRPRPLYWPRP
Second: RRIRDRPPRLPRPRPRPPWQPRP
The “shrunken log2 fold change” value of the first is lower: -0.201 for the first, 0.475 for the second.

Compared with RRIRWRPPRLPRPRPRPHSEPRP, RRIRKRPPRLPRPRPRPLDAPRP is higher in “shrunken log2 fold change” value: -0.162 for the first, 0.748 for the second.

Going from RRIRVRPPRLPRPRPRPAFQPRP to RRIRARPPRLPRPRPRPPFDPRP, the “shrunken log2 fold change” value rises from 0.151 to 0.922.

RRIRWRPPRLPRPRPRPCGPPRP and RRIRTRPPRLPRPRPRPKWMPRP are within 0.2 log units of each other in “shrunken log2 fold change” value: 0.183 for the first, 0.00414 for the second.

RRIRPRPPRLPRPRPRPHSHPRP and RRIRSRPPRLPRPRPRPITPPRP are within 0.2 log units of each other in “shrunken log2 fold change” value: 0.00335 for the first, 0.0356 for the second.

First: RRIRVRPPRLPRPRPRPAWHPRP
Second: RRIRIRPPRLPRPRPRPSEGPRP
The “shrunken log2 fold change” value of the first is higher: 0.657 for the first, -0.0262 for the second.

First: RRIRGRPPRLPRPRPRPTAHPRP
Second: RRIRDRPPRLPRPRPRPAASPRP
The “shrunken log2 fold change” value of the first is higher: 1.12 for the first, 0.049 for the second.

RRIRTRPPRLPRPRPRPDVVPRP and RRIRIRPPRLPRPRPRPEVQPRP are within 0.2 log units of each other in “shrunken log2 fold change” value: -0.106 for the first, -0.022 for the second.

Compared with RRIRGRPPRLPRPRPRPYYSPRP, RRIRGRPPRLPRPRPRPNEKPRP is higher in “shrunken log2 fold change” value: -0.207 for the first, 0.0813 for the second.

Going from RRIRVRPPRLPRPRPRPELEPRP to RRIRPRPPRLPRPRPRPLNKPRP, the “shrunken log2 fold change” value falls from 0.292 to -0.55.

Going from RRIRHRPPRLPRPRPRPWCVPRP to RRIRDRPPRLPRPRPRPIPEPRP, the “shrunken log2 fold change” value rises from -0.386 to -0.138.

First: RRIRKRPPRLPRPRPRPDPTPRP
Second: RRIRFRPPRLPRPRPRPASHPRP
The “shrunken log2 fold change” value of the first is higher: 0.273 for the first, 0.0492 for the second.

RRIRIRPPRLPRPRPRPWCCPRP and RRIRLRPPRLPRPRPRPDIYPRP are within 0.2 log units of each other in “shrunken log2 fold change” value: -0.481 for the first, -0.458 for the second.

Compared with RRIRARPPRLPRPRPRPKCMPRP, RRIRHRPPRLPRPRPRPMTQPRP is lower in “shrunken log2 fold change” value: 0.0351 for the first, -0.24 for the second.

RRIRPRPPRLPRPRPRPKPMPRP and RRIRDRPPRLPRPRPRPFMFPRP are within 0.2 log units of each other in “shrunken log2 fold change” value: 0.218 for the first, 0.033 for the second.

Compared with RRIRSRPPRLPRPRPRPWVHPRP, RRIRIRPPRLPRPRPRPENCPRP is higher in “shrunken log2 fold change” value: -0.221 for the first, -0.00941 for the second.

RRIRGRPPRLPRPRPRPAGKPRP and RRIRARPPRLPRPRPRPTCDPRP are within 0.2 log units of each other in “shrunken log2 fold change” value: 0.338 for the first, 0.534 for the second.

Compared with RRIRIRPPRLPRPRPRPAVTPRP, RRIRGRPPRLPRPRPRPSFEPRP is higher in “shrunken log2 fold change” value: -0.322 for the first, 0.647 for the second.

Going from RRIRWRPPRLPRPRPRPWARPRP to RRIRSRPPRLPRPRPRPRTRPRP, the “shrunken log2 fold change” value rises from 0.135 to 0.512.

Going from RRIRHRPPRLPRPRPRPLTHPRP to RRIRHRPPRLPRPRPRPLGKPRP, the “shrunken log2 fold change” value rises from -1.14 to -0.239.

RRIRERPPRLPRPRPRPAGVPRP and RRIRARPPRLPRPRPRPQGHPRP are within 0.2 log units of each other in “shrunken log2 fold change” value: 0.157 for the first, 0.273 for the second.

Compared with RRIRDRPPRLPRPRPRPEHVPRP, RRIRQRPPRLPRPRPRPPPWPRP is higher in “shrunken log2 fold change” value: 0.212 for the first, 0.981 for the second.

Compared with RRIRFRPPRLPRPRPRPPIWPRP, RRIRSRPPRLPRPRPRPPHHPRP is lower in “shrunken log2 fold change” value: 0.317 for the first, -0.0759 for the second.

RRIRQRPPRLPRPRPRPDYGPRP and RRIRRRPPRLPRPRPRPMYDPRP are within 0.2 log units of each other in “shrunken log2 fold change” value: -0.159 for the first, -0.267 for the second.

Going from RRIRCRPPRLPRPRPRPVGNPRP to RRIRVRPPRLPRPRPRPISPPRP, the “shrunken log2 fold change” value rises from -0.0972 to 0.129.

RRIRMRPPRLPRPRPRPVFLPRP and RRIRFRPPRLPRPRPRPRMDPRP are within 0.2 log units of each other in “shrunken log2 fold change” value: 0.0386 for the first, -0.0641 for the second.

RRIRYRPPRLPRPRPRPYMHPRP and RRIRFRPPRLPRPRPRPHPSPRP are within 0.2 log units of each other in “shrunken log2 fold change” value: 0.0498 for the first, -0.107 for the second.

RRIRNRPPRLPRPRPRPYPTPRP and RRIRYRPPRLPRPRPRPDHTPRP are within 0.2 log units of each other in “shrunken log2 fold change” value: -0.074 for the first, -0.11 for the second.

Going from RRIRFRPPRLPRPRPRPDAAPRP to RRIRVRPPRLPRPRPRPTSGPRP, the “shrunken log2 fold change” value falls from 0.681 to 0.0674.

First: RRIRWRPPRLPRPRPRPNYDPRP
Second: RRIRLRPPRLPRPRPRPDWTPRP
The “shrunken log2 fold change” value of the first is lower: -0.24 for the first, 0.000807 for the second.

RRIRPRPPRLPRPRPRPHWVPRP and RRIRARPPRLPRPRPRPQEGPRP are within 0.2 log units of each other in “shrunken log2 fold change” value: -0.137 for the first, -0.0912 for the second.

RRIRVRPPRLPRPRPRPSRDPRP and RRIRGRPPRLPRPRPRPYEIPRP are within 0.2 log units of each other in “shrunken log2 fold change” value: -0.0563 for the first, -0.132 for the second.

Compared with RRIRHRPPRLPRPRPRPVSTPRP, RRIRSRPPRLPRPRPRPVIWPRP is higher in “shrunken log2 fold change” value: -0.263 for the first, 0.0455 for the second.

First: RRIRYRPPRLPRPRPRPNTFPRP
Second: RRIRLRPPRLPRPRPRPNKEPRP
The “shrunken log2 fold change” value of the first is lower: -1.24 for the first, 0.0626 for the second.

First: RRIRWRPPRLPRPRPRPNVCPRP
Second: RRIRHRPPRLPRPRPRPHLLPRP
The “shrunken log2 fold change” value of the first is higher: 0.0917 for the first, -0.286 for the second.

First: RRIRNRPPRLPRPRPRPYNDPRP
Second: RRIRERPPRLPRPRPRPTCNPRP
The “shrunken log2 fold change” value of the first is lower: -0.581 for the first, -0.315 for the second.

RRIRTRPPRLPRPRPRPQLLPRP and RRIRMRPPRLPRPRPRPESHPRP are within 0.2 log units of each other in “shrunken log2 fold change” value: 0.0259 for the first, 0.076 for the second.

First: RRIRDRPPRLPRPRPRPIIKPRP
Second: RRIRPRPPRLPRPRPRPRGCPRP
The “shrunken log2 fold change” value of the first is lower: -0.0129 for the first, 0.251 for the second.

RRIRPRPPRLPRPRPRPENWPRP and RRIRMRPPRLPRPRPRPTVNPRP are within 0.2 log units of each other in “shrunken log2 fold change” value: 0.264 for the first, 0.177 for the second.

Compared with RRIRYRPPRLPRPRPRPRWQPRP, RRIRNRPPRLPRPRPRPHSTPRP is lower in “shrunken log2 fold change” value: 0.033 for the first, -0.412 for the second.

Going from RRIRSRPPRLPRPRPRPMFCPRP to RRIRGRPPRLPRPRPRPMKLPRP, the “shrunken log2 fold change” value rises from -0.285 to 0.265.

Going from RRIRERPPRLPRPRPRPTCKPRP to RRIRRRPPRLPRPRPRPDEEPRP, the “shrunken log2 fold change” value rises from -0.0222 to 0.526.

Compared with RRIRWRPPRLPRPRPRPGNIPRP, RRIRKRPPRLPRPRPRPSDHPRP is higher in “shrunken log2 fold change” value: -0.472 for the first, -0.239 for the second.

RRIRDRPPRLPRPRPRPKLWPRP and RRIRKRPPRLPRPRPRPPREPRP are within 0.2 log units of each other in “shrunken log2 fold change” value: 0.527 for the first, 0.689 for the second.

Compared with RRIRGRPPRLPRPRPRPWSAPRP, RRIRARPPRLPRPRPRPCMVPRP is lower in “shrunken log2 fold change” value: 0.232 for the first, -0.0554 for the second.

RRIRYRPPRLPRPRPRPCINPRP and RRIRGRPPRLPRPRPRPWCYPRP are within 0.2 log units of each other in “shrunken log2 fold change” value: -0.00114 for the first, 0.0576 for the second.

Compared with RRIRRRPPRLPRPRPRPYIFPRP, RRIRNRPPRLPRPRPRPNLDPRP is higher in “shrunken log2 fold change” value: -0.639 for the first, -0.136 for the second.

In the case of RRIRQRPPRLPRPRPRPDNNPRP, the “shrunken log2 fold change” value is reported as -1.14.
